According to article PMC2212291:

Target: mouse class I molecule H-2 D^b (mouse | mouse (endogenous in MC57))

| Substance | binding plus extraction efficiency [%] |
| --- | --- |
| synthetic LCMV peptide GP33-41 | 17 |
| synthetic LCMV peptide GP276-286 | 38 |
| synthetic LCMV peptide NP396-404 | 50 |
